Experimental data: article PMC8884915, “Electrostatic sheathing of lipoprotein lipase is essential for its movement across capillary endothelial cells” (The Journal of Clinical Investigation, 2022)

T1: soluble mouse S-GPIHBP1 (acidic stretch and adjacent tyrosines replaced with an S-protein tag) (mouse, UniProt Q9D1N2 23-198, residues 32 to 48 replaced with the S-protein tag (KETAAAKFERQHMDS))
T1 sequence: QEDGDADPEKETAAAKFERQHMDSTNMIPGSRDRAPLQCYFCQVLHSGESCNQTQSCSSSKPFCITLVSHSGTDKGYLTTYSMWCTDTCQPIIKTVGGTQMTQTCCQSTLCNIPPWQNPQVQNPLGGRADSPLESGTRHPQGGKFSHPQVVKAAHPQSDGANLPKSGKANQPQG

T2: mouse lipoprotein lipase (LPL), recombinant, purified (mouse, UniProt P11152 28-474)
T2 construct: lipoprotein lipase, mouse; expressed in Drosophila S2 cells; also called mouse LPL; purified mouse LPL; source: Drosophila S2 cells, purified to homogeneity by heparin-Sepharose chromatography
T2 sequence (looked up): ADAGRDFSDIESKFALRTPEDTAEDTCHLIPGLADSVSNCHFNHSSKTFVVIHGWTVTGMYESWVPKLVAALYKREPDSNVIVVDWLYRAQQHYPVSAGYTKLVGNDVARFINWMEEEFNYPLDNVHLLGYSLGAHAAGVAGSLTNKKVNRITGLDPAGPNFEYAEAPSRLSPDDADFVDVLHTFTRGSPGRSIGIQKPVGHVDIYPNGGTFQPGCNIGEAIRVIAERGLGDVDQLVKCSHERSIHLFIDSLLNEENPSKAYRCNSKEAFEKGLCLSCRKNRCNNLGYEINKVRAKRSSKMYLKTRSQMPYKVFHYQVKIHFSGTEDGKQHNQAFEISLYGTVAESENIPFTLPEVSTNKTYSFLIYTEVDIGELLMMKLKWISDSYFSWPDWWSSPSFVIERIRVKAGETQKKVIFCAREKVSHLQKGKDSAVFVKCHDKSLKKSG

B1: mouse lipoprotein lipase (LPL), recombinant, purified (enzyme)
chain: T2 sequence (looked up)
B2: soluble WT mouse GPIHBP1 (residues 23-198) (domain or fragment, UniProt Q9D1N2 23-198, looked up)
chain: QEDGDADPEPENYNYDDDDDEEEEEETNMIPGSRDRAPLQCYFCQVLHSGESCNQTQSCSSSKPFCITLVSHSGTDKGYLTTYSMWCTDTCQPIIKTVGGTQMTQTCCQSTLCNIPPWQNPQVQNPLGGRADSPLESGTRHPQGGKFSHPQVVKAAHPQSDGANLPKSGKANQPQG
modifications: sulfated tyrosines in the acidic domain (Tyr35, Tyr37): one half of the molecules contained 2 sulfated tyrosines, the other half only 1
notes: lacks the carboxyl-terminal signal peptide that triggers the addition of a GPI anchor; Homogeneous and monodisperse preparation after removal of low levels of oligomers by SEC; also called WT-GPIHBP1; purified WT-GPIHBP1

How the values were obtained:
[1] = molecular target: T1, soluble mouse S-GPIHBP1 (acidic stretch …); assay: SPR; LPL bound to heparin DP4, 150 mM NaCl
[2] = molecular target: T1, soluble mouse S-GPIHBP1 (acidic stretch …); assay: SPR; 150 mM NaCl
[3] = molecular target: T1, soluble mouse S-GPIHBP1 (acidic stretch …); assay: SPR; 750 mM NaCl
[4] = molecular target: T1, soluble mouse S-GPIHBP1 (acidic stretch …); assay: SPR; LPL bound to heparin DP4, 150 mM NaCl; remark: listed apart in the source
[5] = molecular target: T1, soluble mouse S-GPIHBP1 (acidic stretch …); assay: SPR; 150 mM NaCl; remark: listed apart in the source
[6] = molecular target: T1, soluble mouse S-GPIHBP1 (acidic stretch …); assay: SPR; 750 mM NaCl; remark: listed apart in the source
[7] = molecular target: T2, mouse lipoprotein lipase (LPL), …; assay: SPR; Biacore T200; mouse LPL captured on the chip with immobilised antibody 27A; WT-GPIHBP1 (0.25-4 nM) or S-GPIHBP1 (2-32 nM) injected, single-cycle kinetics, 50 μL/min, 20°C; 10 mM HEPES pH 7.4, 150 mM NaCl, 4 mM CaCl2, 0.05% P20, 0.2 mg/mL BSA; conditions: both partners purified
[8] = molecular target: B1; assay: SPR; 150 mM NaCl
[9] = molecular target: B1; assay: SPR; 750 mM NaCl
[10] = molecular target: B1; assay: SPR; 150 mM NaCl
[11] = molecular target: B1; assay: SPR; 750 mM NaCl

koff [1] [s⁻¹] | Kd [2] [nM] | koff [3] [s⁻¹] | Kd [4] [nM] | koff [5] [s⁻¹] | Kd [6] [nM] | binding result [7] | Kd [8] [nM] | koff [9] [s⁻¹] | koff [10] [s⁻¹] | Kd [11] [nM] | Binder
0.0211 | 107 | 0.0495 | 290 | 0.0167 | 183 | – | – | – | – | – | B1
– | – | – | – | – | – | binds | 0.93 | 0.0143 | 0.0125 | 20 | B2
